Assay results from PMC4264680.
Where two headings read alike, the source gives them in different places.

B1: Th GC-R1/CRE duplex WT (EMSA) (dsDNA)
DNA 1: GCAGGAGGTAGGAGGTGGGGGACCCAGAGGGGCTTTGACGTCAGCCTGGCC
DNA 2: GGCCAGGCTGACGTCAAAGCCCCTCTGGGTCCCCCACCTCCTACCTCCTGC
B2: CRE mutant duplex (EMSA) (dsDNA)
DNA 1: GCAGGAGGTAGGAGGTGGGGGACCCAGAGGGGCTTGTCATCAGGCCTGGCC
DNA 2: GGCCAGGCCTGATGACAAGCCCCTCTGGGTCCCCCACCTCCTACCTCCTGC

How the values were obtained:
Test in all cases: EMSA
CREB (purified) [1] = molecular target: T1, CREB (purified) (UniProt P16220 1-327)
[2] = molecular target: hnRNP K (purified);CREB (purified) (;, UniProt P61978;P16220 1-463;1-327, |)
CREB (purified) [3] = molecular target: T1, CREB (purified); remark: listed apart in the source

T1 sequence (P16220 whole entry): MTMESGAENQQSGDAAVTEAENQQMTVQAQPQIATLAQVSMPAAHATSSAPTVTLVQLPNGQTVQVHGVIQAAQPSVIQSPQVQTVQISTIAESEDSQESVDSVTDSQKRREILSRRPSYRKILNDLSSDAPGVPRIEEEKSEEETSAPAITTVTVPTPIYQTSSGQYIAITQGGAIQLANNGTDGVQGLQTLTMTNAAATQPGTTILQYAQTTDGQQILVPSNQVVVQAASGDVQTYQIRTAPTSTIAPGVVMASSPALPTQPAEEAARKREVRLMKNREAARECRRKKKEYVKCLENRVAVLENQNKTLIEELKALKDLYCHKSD
hnRNP K (purified);CREB (purified), sequence (P16220 whole entry, chain 2 of 2, other chains not shown): as the sequence (P16220 whole entry) above

Row | Binder | binding result (CREB (purified) [1]) | binding result [2] | binding result (CREB (purified) [3])
1 | B1 | binds | binds | –
2 | B2 | – | – | binds
